From PMC10515186

What was measured:
[1] = molecular target: SARS-CoV-2 spike protein (Hexapro S) (SARS-CoV-2); assay: other fluorescence titration
[2] = molecular target: SARS-CoV-2 spike protein (Hexapro S) (SARS-CoV-2); assay: dynamic light scattering
[3] = molecular target: SARS-CoV-2 spike protein (Hexapro S) (SARS-CoV-2)

Row | Substance | half-saturation point [1] [nM] | lowest lectin concentration with a significant increase in hydrodynamic radius [2] [nM] | EC50, plaque reduction assay, SARS-CoV-2 Munich isolate in Vero E6 cells [3] [nM]
1 | SeTau-405 fluorescently labeled BOA (natural protein) | 30 to 60 | – | –
2 | Oscillatoria agardhii agglutinin (OAA) (natural protein) | – | 125 | –
3 | Burkholderia oklahomensis agglutinin (BOA) (natural protein) | – | 60 | 9
